{"source": "patent US12072338B2", "about": "“Pharmaceutical peptides for the treatment of inflammatory diseases” (PROTAGONISTS LTD., priority 2007, dated 2024)", "key": {"[1]": {"test_system": "Adjuvant-Induced Arthritis (AIA) rats", "assay": "Adjuvant Induced Arthritis (AIA) rat model, Clinical Score", "assay_type": "in vivo", "conditions": "25 μg IP on days 7-18", "method": "Peptides were tested in a rat model of AIA for their anti-inflammatory effects.\nDisease Induction: AIA was induced in female Lewis rats aged 7-8 weeks by injection of heat-killed Mycobacerioum tuberculosis (Mt strain H37Ra, Difco Laboratories, USA) dispersed in incomplete Freund's adjuvant to a final concentration of 10 mg/ml (100 μl) at the base of the tail on day 0.\nMeasurement: Clinical Score (CS, 0-4) for each limb based on (a) joint inflammation, (b) redness, (c) deformity.\nEfficacy Protocol 1 (5 rats per group). Peptide/control compound was injected intra-peritoneally (IP, 200 μl) on days 7-11 and 14-18.\nRats were sacrificed (CO2 inhalation) on day 43.\nEfficacy Protocol 2 (8 rats per group). Group 1: peptide/PBS was injected intra-peritoneally (IP, 200 μl) on days 7-18; Group 2: PBS was injected IP on days 7-18; Group 3: Dexamethasone (Dexa) was injected IP on days 11 (Clinical Score (CS)1) and 13. Rats were sacrificed on day 43.\nCombination Efficacy Protocol 1 (8 rats per group). Group 1: peptide injected IP on days 7-18; Group 2: PBS injected IP on days 7-18; Group 3: Dexa injected IP on day 11 (CS 1) and day 13; Group 4: Dexa injected IP on days 11 and 13 then peptide injected on days 14-22; Group 5: Dexa injected IP on days 11 and 13 then PBS injected on days 14-22.\n(§1) Combination Efficacy Protocol 2 (8 rats per group). Group 1: peptide injected IP on days 7-18; Group 2: PBS injected IP on days 7-18; Group 3: Dexa injected IP on day 11 (CS 1) and day 13 then PBS on days 14-22; Group 4: PBS injected IP on days 7-10,12,14; Dexa injected on days 11, 13. Peptide injected on days 15-19.\nas §1, with “Protocol 3” for “Protocol 2”, “4: peptide” for “4: PBS”\nControl Reagents for Adjuvant Induced Arthritis: Anti-Inflammatory Control: Dexamethasone Sodium Phosphate (Dexacort Forte, Teva) was dissolved in Phosphate Buffer Saline (PBS, GIBCO) to a final concentration of 1 mg/ml and injected in 200 μl (200 μg).\nNegative Control: Phosphate Buffer Saline (PBS)."}, "Eotaxin 3": {"biological_target": "T1, Eotaxin 3 (Homo sapiens, UniProt Q9Y258)", "T1 construct": "purchased 300-48", "T1 sequence (Q9Y258 24-94)": "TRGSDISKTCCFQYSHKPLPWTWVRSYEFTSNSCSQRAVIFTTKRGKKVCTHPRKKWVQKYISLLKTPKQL", "assay": "Micro-array analysis of chemokine binding peptides: Eotaxin 3", "method": "(§2) (1) Printing: Chemokine (CK) solution (in water) was serially diluted with Print Reagent (GenTel BioSurfaces USA) to final concentrations of 50 μg and 25 μg/ml. BSA/BSA-Biotin control solutions (in water) were diluted with Print Reagent to 100 μg/ml. Amplified stock of M13 phage control (M13KEgIII Cloning Vector, New England Biolabs, Cat.No.E8101S) was stored in Tris Buffered Saline (TBS; pH7.5, 4° C.) and diluted with Print Reagent to the working titre (10^8 pfu/μl). An automated spotting robot (16 pin print tool, 0.4 mm head; BioRobotics, UK) was used to print the CK/BSA control/M13 control, 5 repeats per sample (CK 25 μg/ml and 50 μg/ml; BSA 100 μg/ml; M13 20 μl), on PATH Protein Microarray Slides (GenTel, Prod.No. 2-1005/-1025) at […], and 50-70% relative humidity. Printed micro-array slides were stored at Room Temperature (RT) or 4° C. for at least 24 h before use.\n(§3) (2) Blocking: Block Buffer (500 μl/partition; PATHblock, GenTel, Prod.No. 2-1014) was applied to the slide for 1 hour at room temp (RT). After removal of Block Buffer, the slide was air dried for 25 minutes;\n(§4) (3) Phage Presented Peptide Binding: Amplified recombinant phage stock was stored in TBS and diluted with Wash Buffer to working titer (10^7 pfu/μl). Recombinant phage suspension (300 μl) was applied per partition and incubated at RT for 1 hour with gentle agitation.\n(§5) (4) First Washing: The slides were washed twice with Wash Buffer 300 μl/partition).\n(§6) (5) Primary Antibody (Ab) Labeling: The slides were incubated with the Primary Ab (1 mg/ml diluted ×2500 (Wash Reagent), 300 μl; Mouse Anti-M13 monoclonal Ab; Amersham Biosciences, UK; Product Code 27-9420-01) for 45 minutes at RT.\n(§7) (6) Second Washing: The slides were washed twice with Wash Buffer (300 μl/partition).\n(§8) (7) Secondary Ab Labeling: The slides were incubated with Secondary Ab (1.5 mg/ml diluted ×5000 (Wash Reagent), 300 μl; Cy3-conjugated AffiniPure Goat Anti-Mouse IgG; Jackson ImmunoReserch Labs, USA; Product Code 115-165-062).\n(§9) (8) Third Washing: The slides were washed twice with Wash Buffer (300 μl/partition).\n(§10) (9) Rinse: the slides were rinsed twice with Rinse Buffer (PATHrinse, GenTel, Prod.No. 2-1018) then dried well.\n(§11) (10) Scanning: The peptide-bound, labeled slide was scanned (Laser Intensity 80%, Gain 80%, Resolution 10 μm) with a ScanArray Life Scanner (Packard BioChip Technologies, USA).\n(§12) (11) Analysis: Quantitative analysis of micro-array was performed by the SpotReader program of Niles Scientific (USA) and presented as Relative Fluorescence (RF) as a function of CK concentration. Micro-array readout (Cy3 fluorescence) was quantified to determine the relative binding affinities of a CBP for the CKs and by inference, the specificity of the CBP for binding to a CK."}, "TECK": {"biological_target": "T2, TECK (Homo sapiens, UniProt O15444)", "T2 construct": "purchased 300-45", "T2 sequence (O15444 24-150)": "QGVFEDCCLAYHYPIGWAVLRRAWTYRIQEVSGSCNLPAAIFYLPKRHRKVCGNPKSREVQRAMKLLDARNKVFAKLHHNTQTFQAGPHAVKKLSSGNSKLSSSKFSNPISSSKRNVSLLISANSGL", "assay": "Micro-array analysis of chemokine binding peptides: TECK", "method": "as §2, §3, §4, §5, §6, §7, §8, §9, §10, §11, §12"}, "Lymphotactin": {"biological_target": "T3, Lymphotactin (Homo sapiens, UniProt P47992)", "T3 construct": "purchased 300-20", "T3 sequence (P47992 22-114)": "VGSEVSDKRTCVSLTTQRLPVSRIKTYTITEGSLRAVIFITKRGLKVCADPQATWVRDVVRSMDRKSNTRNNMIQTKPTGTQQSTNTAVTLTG", "assay": "Micro-array analysis of chemokine binding peptides: Lymphotactin", "method": "as §2, §3, §4, §5, §6, §7, §8, §9, §10, §11, §12"}, "BCA-1": {"biological_target": "T4, BCA-1 (Homo sapiens, UniProt O43927)", "T4 construct": "purchased 300-47", "T4 sequence (O43927 23-109)": "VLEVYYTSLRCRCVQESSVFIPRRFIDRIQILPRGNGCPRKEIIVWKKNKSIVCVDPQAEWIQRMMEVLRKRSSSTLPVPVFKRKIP", "assay": "Micro-array analysis of chemokine binding peptides: BCA-1", "method": "as §2, §3, §4, §5, §6, §7, §8, §9, §10, §11, §12"}, "I-TAC": {"biological_target": "T5, I-TAC (Homo sapiens, UniProt O14625)", "T5 construct": "purchased 300-46", "T5 sequence (O14625 22-94)": "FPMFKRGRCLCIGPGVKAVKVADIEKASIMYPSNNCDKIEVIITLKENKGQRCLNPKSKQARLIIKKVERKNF", "assay": "Micro-array analysis of chemokine binding peptides: I-TAC", "method": "as §2, §3, §4, §5, §6, §7, §8, §9, §10, §11, §12"}, "Mig": {"biological_target": "T6, Mig (Homo sapiens, UniProt Q07325)", "T6 construct": "purchased 300-26", "T6 sequence (Q07325 23-125)": "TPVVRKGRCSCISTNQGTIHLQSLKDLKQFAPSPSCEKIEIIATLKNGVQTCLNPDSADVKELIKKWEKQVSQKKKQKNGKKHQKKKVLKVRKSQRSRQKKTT", "assay": "Micro-array analysis of chemokine binding peptides: Mig", "method": "as §2, §3, §4, §5, §6, §7, §8, §9, §10, §11, §12"}, "I-309": {"biological_target": "T7, I-309 (Homo sapiens, UniProt P22362)", "T7 construct": "purchased 300-37", "T7 sequence (P22362 24-96)": "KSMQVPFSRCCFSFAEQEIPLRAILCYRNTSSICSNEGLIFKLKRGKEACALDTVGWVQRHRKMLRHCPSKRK", "assay": "Micro-array analysis of chemokine binding peptides: I-309", "method": "as §2, §3, §4, §5, §6, §7, §8, §9, §10, §11, §12"}, "IP-10": {"biological_target": "T8, IP-10 (Homo sapiens, UniProt P02778)", "T8 construct": "purchased 300-12", "T8 sequence (P02778 22-98)": "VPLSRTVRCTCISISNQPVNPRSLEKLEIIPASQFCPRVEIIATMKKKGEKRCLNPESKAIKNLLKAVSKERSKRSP", "assay": "Micro-array analysis of chemokine binding peptides: IP-10", "method": "as §2, §3, §4, §5, §6, §7, §8, §9, §10, §11, §12"}, "Eotaxin": {"biological_target": "T9, Eotaxin (Homo sapiens, UniProt P51671)", "T9 construct": "purchased 300-21", "T9 sequence (P51671 24-97)": "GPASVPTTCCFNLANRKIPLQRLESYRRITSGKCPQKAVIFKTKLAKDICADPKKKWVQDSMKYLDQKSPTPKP", "assay": "Micro-array analysis of chemokine binding peptides: Eotaxin", "method": "as §2, §3, §4, §5, §6, §7, §8, §9, §10, §11, §12"}, "MCP-4": {"biological_target": "T10, MCP-4 (Homo sapiens, UniProt Q99616)", "T10 construct": "purchased 300-24", "T10 sequence (Q99616 17-98)": "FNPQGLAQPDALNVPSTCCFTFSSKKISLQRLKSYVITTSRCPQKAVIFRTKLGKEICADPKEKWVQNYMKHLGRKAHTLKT", "assay": "Micro-array analysis of chemokine binding peptides: MCP-4", "conditions": "limit = start of the upper 75% of that peptide's response range", "method": "as §2, §3, §4, §5, §6, §7, §8, §9, §10, §11, §12"}, "MCP-2": {"biological_target": "T11, MCP-2 (Homo sapiens, UniProt P80075)", "T11 construct": "purchased 300-15", "T11 sequence (P80075 24-99)": "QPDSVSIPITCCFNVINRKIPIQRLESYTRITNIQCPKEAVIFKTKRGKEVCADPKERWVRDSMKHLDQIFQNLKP", "assay": "Micro-array analysis of chemokine binding peptides: MCP-2", "conditions": "limit = start of the upper 75% of that peptide's response range", "method": "as §2, §3, §4, §5, §6, §7, §8, §9, §10, §11, §12"}, "SDF1-β": {"biological_target": "T12, SDF1-β (Homo sapiens, UniProt P48061)", "T12 construct": "purchased 300-28b", "T12 sequence (P48061 22-93)": "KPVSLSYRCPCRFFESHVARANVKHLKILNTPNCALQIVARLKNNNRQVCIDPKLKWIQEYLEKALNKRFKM", "assay": "Micro-array analysis of chemokine binding peptides: SDF1-β", "method": "as §2, §3, §4, §5, §6, §7, §8, §9, §10, §11, §12"}, "[2]": {"conditions": "limit = start of the upper 75% of that peptide's response range"}}}
{"substance": "WVFGNMICK [P8 Rat]", "values": [{"measurement": "maximal anti-inflammatory effect", "setting": "[1]", "result": 40, "unit": "%"}]}
{"substance": "GNAMCK (listed as Homo sapiens) [Ph-p8.1]", "values": [{"measurement": "binding to Eotaxin 3 with relatively high affinity (Relative Fluorescence Units)", "setting": "Eotaxin 3; [2]", "result": "> 15,000 RFU"}, {"measurement": "binding to TECK with relatively high affinity (Relative Fluorescence Units)", "setting": "TECK; [2]", "result": "> 15,000 RFU"}, {"measurement": "binding to Lymphotactin with relatively high affinity (Relative Fluorescence Units)", "setting": "Lymphotactin; [2]", "result": "> 15,000 RFU"}, {"measurement": "binding to BCA-1 with relatively high affinity (Relative Fluorescence Units)", "setting": "BCA-1; [2]", "result": "> 15,000 RFU"}]}
{"substance": "WVFGNAACK [Ph-p8.7]", "values": [{"measurement": "binding to I-TAC, stated in words", "setting": "I-TAC", "result": "bound"}, {"measurement": "binding to Mig, stated in words", "setting": "Mig", "result": "bound"}, {"measurement": "binding to I-309, stated in words", "setting": "I-309", "result": "bound"}, {"measurement": "binding to Eotaxin 3, stated in words", "setting": "Eotaxin 3", "result": "bound"}, {"measurement": "binding to IP-10, stated in words", "setting": "IP-10", "result": "bound"}, {"measurement": "binding to Eotaxin, stated in words", "setting": "Eotaxin", "result": "bound"}, {"measurement": "binding to MCP-4 with relatively high affinity (Relative Fluorescence Units)", "setting": "MCP-4", "result": "> 15,000 RFU"}, {"measurement": "binding to MCP-2 with relatively high affinity (Relative Fluorescence Units)", "setting": "MCP-2", "result": "> 15,000 RFU"}, {"measurement": "binding to TECK, stated in words", "setting": "TECK", "result": "bound"}, {"measurement": "binding to Lymphotactin, stated in words", "setting": "Lymphotactin", "result": "bound"}, {"measurement": "binding to SDF1-β, stated in words", "setting": "SDF1-β", "result": "bound"}, {"measurement": "binding to BCA-1, stated in words", "setting": "BCA-1", "result": "bound"}]}
